# Results from publication PMC11310338.
# Where two headings read alike, the source gives them in different places.
# T1: SCAF4-CID (human, UniProt O95104 1-139)
# T1 sequence: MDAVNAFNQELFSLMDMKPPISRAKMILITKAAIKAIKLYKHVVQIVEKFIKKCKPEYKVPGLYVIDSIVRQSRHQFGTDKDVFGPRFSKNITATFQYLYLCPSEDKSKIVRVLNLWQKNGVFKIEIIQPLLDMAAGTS
# T2: SCAF8-CID (human, UniProt Q9UPN6 1-139)
# T2 sequence: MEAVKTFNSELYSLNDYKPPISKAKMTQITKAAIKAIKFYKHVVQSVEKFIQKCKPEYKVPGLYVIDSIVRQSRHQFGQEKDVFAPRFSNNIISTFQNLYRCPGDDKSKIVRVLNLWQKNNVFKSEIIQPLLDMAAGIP
# Key:
# SCAF4-CID [1] = molecular target: T1, SCAF4-CID; test: SPR
# SCAF4-CID [2] = molecular target: T1, SCAF4-CID; test: competition FP
# SCAF8-CID [3] = molecular target: T2, SCAF8-CID; test: SPR
# SCAF8-CID [4] = molecular target: T2, SCAF8-CID; test: competition FP
# WDR5 [5] = molecular target: T3, WDR5 (human, UniProt P61964 1-334); test: competition FP
# WDR5 [6] = molecular target: T3, WDR5; test: fluorescence polarization
# WDR5 L240K = WDR5 L240K (human, UniProt P61964 1-334, L240K); test: fluorescence polarization
# WDR5 [7] = molecular target: T3, WDR5; test: SPR
# SCAF4-CID [8] = molecular target: T1, SCAF4-CID; test: fluorescence polarization
# SCAF4-CID [9] = molecular target: T1, SCAF4-CID; test: competition FP; remark: listed apart in the source
Binder,Kd (SCAF4-CID [1]) [nM],IC50 (SCAF4-CID [2]) [nM],Kd (SCAF8-CID [3]) [nM],IC50 (SCAF8-CID [4]) [nM],further results
AGGTGGGT (ssDNA) [B2_8-nt],297 ± 48.1,1040 ± 419,–,–,–
GGGGTGGGGAG (ssDNA) [SRiApt-1 (F3_11-nt)],58.4 ± 5.8,–,56.3 ± 7.42,1500 ± 690,–
GGGGGCTGGACCCCTCAACT (structured_DNA) [WMiApt-1],–,–,–,–,IC50 (WDR5 [5]): 431 ± 134 nM; Kd (WDR5 [6]): 797 ± 95.2 nM; binding result (WDR5 L240K): binds; Kd (WDR5 [7]): 138 ± 86.7 nM
GGTGGGGA (ssDNA) [F1_8-nt],88.6 ± 15.1,554 ± 106,–,–,–
TGGTGGGA (ssDNA) [D1_8-nt],–,1270 ± 864,–,–,–
TTAAAGGGGTGGGGAGTCAT (ssDNA) [SRiApt-3],22.7 ± 1,285 ± 26.6,–,291 ± 19.7,–
GTGGG (ssDNA) [SCAF4_LS (D2_5-nt)],140 ± 40.1,–,76.4 ± 7.33,1960 ± 240,Kd (SCAF4-CID [8]): 189 ± 40.1 nM; IC50 (SCAF4-CID [9]): 2750 ± 682 nM
GGACC (ssDNA) [WDR5 lead sequence (H4)],–,–,–,–,IC50 (WDR5 [5]): 8500 ± 4250 nM
CAGGTGGGTTC (ssDNA) [SRiApt-2 (F7_11-nt_B)],–,400 ± 143,90.5 ± 25.8,2690 ± 1430,–
